Here are results for four molecules from article PMC4733052, “Heart of glass anchors Rasip1 at endothelial cell-cell junctions to support vascular integrity” (eLife, 2016).

First the molecules themselves.
B1: recombinant Rasip1 RA domain (residues 134-285) (domain or fragment, human, UniProt Q5U651 134-285, looked up)
chain: EPPLATRATAPPGVLKIFGAGLASGANYKSVLATARSTARELVAEALERYGLAGSPGGGPGESSCVDAFALCDALGRPAAAGVGSGEWRAEHLRVLGDSERPLLVQELWRARPGWARRFELRGREEARRLEQEAFGAADSEGTGAPSWRPQK
notes: Rasip1, human, Ras-association (RA) domain residues 134-285; Cloned into pETM-11; also called Rasip1 RA domain wild-type; Rasip1 wild-type
B3: human Rap1 isoform Rap1B (residues 1–167), GMP-PNP-bound (natural protein, UniProt P61224 1-167, looked up)
chain: MREYKLVVLGSGGVGKSALTVQFVQGIFVEKYDPTIEDSYRKQVEVDAQQCMLEILDTAGTEQFTAMRDLYMKNGQGFALVYSITAQSTFNDLQDLREQILRVKDTDDVPMILVGNKCDLEDERVVGKEQGQNLARQWNNCAFLESSAKSKINVNEIFYDLVRQINR
notes: Rap1B, human, residues 1-167; Loaded with GMP-PNP; expression and purification as in Gingras et al., 2013; source: Escherichia coli strain CK600K (pTAC vector), purified, nucleotide exchanged for GMP-PNP

Data set [1] addresses B3. In words: ITC; VP-ITC at 25°C; 335 μM GMP-PNP-bound Rap1B from the syringe into 30 μM Rasip1 RA domain (monomer concentration) in the cell; 20 mM Sodium Phosphate, 200 mM NaCl, 3 mM MgCl2, pH 6.5, 0.1 mM GMP-PNP; single-site fit. Conditions: both partners purified.
Data set [2] deals with the molecule itself. The experiment in a line: SEC; Rasip1 RA domain alone (50 μM) on Superdex-75 (10/300); apparent mass against calculated monomer mass 16.3 kDa.
The target in data set [3] is B1. In words: ITC; VP-ITC at 25°C; 335 μM GMP-PNP-bound Rap1B from the syringe into 30 μM Rasip1 RA domain (monomer concentration) in the cell; 20 mM Sodium Phosphate, 200 mM NaCl, 3 mM MgCl2, pH 6.5, 0.1 mM GMP-PNP; single-site fit. The note with it: both partners purified.
In data set [4] the target is T1, αIIb integrin cytoplasmic tail (Homo sapiens (Human), UniProt P08514, biotin on the in vivo biotinylation peptide tag).
T1 chain: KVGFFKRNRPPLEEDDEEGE
The experiment in a line: pull-down (NeutrAvidin bead-immobilised tail peptide, Coomassie-stained SDS-PAGE).

With B1, the Kd in data set [1] was 770 ± 90 nM. Further, in data set [2], the “stoichiometry N” value was 2.

B2: recombinant Rasip1 RA domain (residues 134-285) R182E (domain or fragment, human, UniProt Q5U651 134-285, looked up)
chain: EPPLATRATAPPGVLKIFGAGLASGANYKSVLATARSTARELVAEALEEYGLAGSPGGGPGESSCVDAFALCDALGRPAAAGVGSGEWRAEHLRVLGDSERPLLVQELWRARPGWARRFELRGREEARRLEQEAFGAADSEGTGAPSWRPQK
notes: Rasip1, human, RA domain residues 134-285 with R182E; also called Rasip1(R182E); Rasip1 RA domain (R182E)
For B2, the binding result in data set [2] was “binds”.
For B3, the “stoichiometry N” value in data set [3] is 2 Rap1 monomers per Rasip1 dimer.

B4: recombinant His-MBP-fusion Rasip1 central domain (residues 266-550) (protein)
chain: EAFGAADSEGTGAPSWRPQKNRSRAASGGAALASPGPGTGSGAPAGSGGKERSENLSLRRSVSELSLQGRRRRQQERRQQALSMAPGAADAQIGTADPGDFDQLTQCLIQAPSNRPYFLLLQGYQDAQDFVVYVMTREQHVFGRGGNSSGRGGSPAPYVDTFLNAPDILPRHCTVRAGPEHPAMVRPSRGAPVTHNGCLLLREAELHPGDLLGLGEHFLFMYKDPRTGGSGPARPPWLPARPGATPPGPGWAFSCRLCGRGLQERGEALAAYLDGREPVLRFRPR
In the case of B4, in data set [4], the binding result is reported as “no binding”.
